The values below come from patent US12319742 (SHATTUCK LABS, dated 2025).

Experiment [1] has as its target T1, TNFRSF25 on lymphocytes in human PBMCs (human, UniProt Q93038 25-417).
T1 construct: whole, on cells; also called TNFRSF25 on CD4+ and CD8+ T cells and NK cells
T1 sequence (looked up): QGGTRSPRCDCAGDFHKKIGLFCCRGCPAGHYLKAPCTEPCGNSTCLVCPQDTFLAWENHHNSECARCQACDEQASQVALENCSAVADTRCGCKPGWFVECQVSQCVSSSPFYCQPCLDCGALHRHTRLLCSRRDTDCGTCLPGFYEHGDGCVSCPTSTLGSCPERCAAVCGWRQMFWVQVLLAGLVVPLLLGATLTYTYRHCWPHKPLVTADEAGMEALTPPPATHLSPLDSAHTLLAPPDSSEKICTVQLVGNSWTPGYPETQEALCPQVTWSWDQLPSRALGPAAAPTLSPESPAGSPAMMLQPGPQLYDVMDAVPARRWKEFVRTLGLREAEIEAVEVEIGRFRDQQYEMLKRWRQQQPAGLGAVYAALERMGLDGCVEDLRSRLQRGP
Description: flow cytometry MFI on NK cells of human PBMCs, IL12+IL18 stimulation 24 h, APC anti-human Fc. The method, then: (§1) Human PBMCs were stimulated with either IL12+IL18 or anti-CD3/CD28 for 24 hours to assess binding of anti-TNFRSF25 to lymphocyte subsets.
(§2) Figure 9: FIG. 9. […] Figure 10: FIG. 10.

For experiment [2], the target named is T1, TNFRSF25 on lymphocytes in human PBMCs. Description: flow cytometry MFI on NK cells of human PBMCs, no stimulation, APC anti-human Fc. (In flow cytometry, cells or beads pass a laser one at a time.)
Experiment [3] concerns the target T2, biotinylated recombinant human TNFRSF25-His tagged (Acro #TN5-H52H3) (human, UniProt Q93038 25-199, biotinylated).
T2 construct: treated as the same protein; also called recombinant biotin-conjugated human TNFRSF25 protein; DR3
T2 sequence (looked up): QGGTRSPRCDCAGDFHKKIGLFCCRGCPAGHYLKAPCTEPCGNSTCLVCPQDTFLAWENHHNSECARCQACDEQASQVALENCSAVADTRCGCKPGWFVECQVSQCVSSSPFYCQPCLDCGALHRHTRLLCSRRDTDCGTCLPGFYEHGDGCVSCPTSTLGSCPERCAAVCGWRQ
The experiment can be described thus: SPR (Biacore); biotinylated TNFRSF25-His on streptavidin chip SA; 2 min association, 30 min dissociation; 1:1 binding. The method, then: (§3) (FIG. 5A) BLI assay was performed using the Octet Red 96e instrument. Streptavidin biosensors were loaded with biotinylated recombinant human TNFRSF25-His tagged (Acro #TN5-H52H3) as the ligand. […] (FIG. 5B) SPR was performed on a Biacore 8K instrument.

Experiment [4] has as its target T1, TNFRSF25 on lymphocytes in human PBMCs. The experiment can be described thus: flow cytometry MFI on CD4+ T cells of human PBMCs, IL12+IL18 stimulation 24 h, APC anti-human Fc. The method, then: as §1, §2
Experiment [5] shares this target. The experiment can be described thus: flow cytometry MFI on CD8+ T cells of human PBMCs (panel 1003_CD8+T), anti-CD3/CD28 stimulation 24 h, APC anti-human Fc. The method, then:
as §1, §2

The target in experiment [6] is T2, biotinylated recombinant human …. Description: SPR (Biacore 8K); biotinylated TNFRSF25-His on streptavidin chip SA, SL-061 flowed; 1:1 binding. The method, then:
as §3
For orientation: SPR reads the build-up and loss of mass on a sensor chip optically.

Experiment [7] addresses T1, TNFRSF25 on lymphocytes in human PBMCs. Description: flow cytometry MFI on CD8+ T cells of human PBMCs (panel 1003_CD8+T), no stimulation, APC anti-human Fc.
Experiment [8] concerns the target T3, biotinylated recombinant human FcRn-His tagged protein (Acro #FCM-H82W7) (human, UniProt P55899 24-297; P61769 21-119, biotinylated).
T3 construct: also called hFcRn; neonatal Fc receptor
Description: BLI/Octet; biotinylated human FcRn-His on streptavidin biosensor; pH 7.4. (Biolayer interferometry detects binding as a change in optical thickness at a sensor tip.)

In experiment [9] the target is T4, CD40.
T4 construct: member of group m24; also called CD40 overexpressed in engineered mammalian cells
T4 sequence (chain, as listed by the source limits assumed): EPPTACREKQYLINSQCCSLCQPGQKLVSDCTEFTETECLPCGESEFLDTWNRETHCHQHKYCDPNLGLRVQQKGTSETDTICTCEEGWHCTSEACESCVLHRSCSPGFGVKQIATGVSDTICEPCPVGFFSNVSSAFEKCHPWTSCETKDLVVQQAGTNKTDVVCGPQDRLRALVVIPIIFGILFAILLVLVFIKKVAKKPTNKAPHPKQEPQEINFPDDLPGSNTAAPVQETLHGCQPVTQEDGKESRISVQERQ
Description: flow cytometry on engineered mammalian cells overexpressing CD40, APC anti-human Fc.

In experiment [10] the target is T2, biotinylated recombinant human …. Description: MSD competition; TNFRSF25 on plate, antibody titrated, then recombinant TL1A (TL1A-rabbit Fc) as competitor. The method, then:
Figure 6: FIG. 6. […] Human TNFRSF25 was precoated on MSD assay plates followed by incubating with various concentrations of anti-TNFRSF25 antibodies.

The target in experiment [11] is T5, GITR.
T5 construct: member of group m24; also called GITR overexpressed in engineered mammalian cells
T5 chain: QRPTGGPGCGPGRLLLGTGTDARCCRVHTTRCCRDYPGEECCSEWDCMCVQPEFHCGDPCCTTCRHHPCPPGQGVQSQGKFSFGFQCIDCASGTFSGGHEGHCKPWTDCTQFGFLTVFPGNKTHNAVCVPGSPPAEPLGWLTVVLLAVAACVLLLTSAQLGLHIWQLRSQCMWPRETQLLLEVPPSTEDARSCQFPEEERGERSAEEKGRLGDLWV
Description: flow cytometry on engineered mammalian cells overexpressing GITR, APC anti-human Fc.

The target of experiment [12] is T1, TNFRSF25 on lymphocytes in human PBMCs. The experiment can be described thus: flow cytometry MFI on NK cells of human PBMCs, anti-CD3/CD28 stimulation 24 h, APC anti-human Fc. The method, then: as §1, §2

T3 sequence (P55899 24-297 limits assumed, chain 1 of 2): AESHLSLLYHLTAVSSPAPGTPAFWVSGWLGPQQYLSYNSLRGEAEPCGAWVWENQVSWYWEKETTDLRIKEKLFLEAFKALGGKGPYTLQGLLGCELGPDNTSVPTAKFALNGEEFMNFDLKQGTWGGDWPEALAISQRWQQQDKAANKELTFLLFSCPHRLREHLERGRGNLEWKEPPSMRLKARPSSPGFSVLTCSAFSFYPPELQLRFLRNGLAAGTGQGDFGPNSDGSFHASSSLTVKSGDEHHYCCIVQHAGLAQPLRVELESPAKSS
T3 sequence (P61769 21-119 limits assumed, chain 2 of 2): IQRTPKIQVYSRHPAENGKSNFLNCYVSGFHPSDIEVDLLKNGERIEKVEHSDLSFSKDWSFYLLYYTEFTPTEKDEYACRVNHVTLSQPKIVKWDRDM

B1: SL-061 (antibody, human IgG1, kappa)
heavy: QVQLQQSGPGLVKPSQTLSLTCAISGDSVSGYSAAWNWIRQSPSRGLEWLGRTYYRSKWYNDYAVSVKSRITINPDTSKNQFSLQLNSVTPEDTAVYYCARDYYGSESYYNRGYYYYGMDVWGQGTTVTVSSASTKGPSVFPLAPSSKSTSGGTAALGCLVKDYFPEPVTVSWNSGALTSGVHTFPAVLQSSGLYSLSSVVTVPSSSLGTQTYICNVNHKPSNTKVDKKVEPKSCDKTHTCPPCPAPEAAGAPSVFLFPPKPKDTLMISRTPEVTCVVVDVSHEDPEVKFNWYVDGVEVHNAKTKPREEQYNSTYRVVSVLTVLHQDWLNGKEYKCKVSNKALPAPIEKTISKAKGQPREPQVYTLPPSREEMTKNQVSLTCLVKGFYPSDIAVEWESNGQPENNYKTTPPVLDSDGSFFLYSKLTVDKSRWQQGNVFSCSVMHEALHNHYTQKSLSLSPGK
light: AIQLTQSPSSLSASVGDRVTITCRASPGISSALAWYQQKPGKAPKLLMYDESSQESGVPSRFSGSGSGTDFTLTISSLQPEDFATYYCQQFNDYPLTFGGGTKVEIKRTVAAPSVFIFPPSDEQLKSGTASVVCLLNNFYPREAKVQWKVDNALQSGNSQESVTEQDSKDSTYSLSSTLTLSKADYEKHKVYACEVTHQGLSSPVTKSFNRGEC
notes: Same variable regions as SL-033; IgG1 with L234A/L235A+G237A; also called clone 061; SL-061 (L234A/L235A+G237A)
As a reminder, the EC50 is the concentration at which the effect is half-maximal. Usually koff stands for a measure of how fast the partners let go of each other. Broadly, the kon is a measure of how fast the partners come together. As usually defined, the Kd is the free concentration of one partner at which half of the binding sites on the other are occupied at equilibrium, for simple one-to-one binding. The term IC50 denotes the concentration that inhibits the measured activity by half. Take B1: the EC50 in experiment [1] was 0.065 nM; in [2] it was 0.078 nM; in [4], 0.035 nM; in [5] it was 0.059 nM; in experiment [7] it was 0.068 nM; in experiment [12] it was 0.054 nM. In addition, the koff in experiment [3] worked out at 3.89e-06 s⁻¹; in experiment [8], 0.00327 s⁻¹. The kon in experiment [3] was 2.85e+06 M⁻¹ s⁻¹; in experiment [8], 441000 M⁻¹ s⁻¹. For the same molecule, the Kd was found to be 0.00136 nM in [6] and 7.41 nM in experiment [8]. Moreover, the binding result in experiment [9] and in experiment [11] was “no binding (tested: about 20 nM)” each time. In addition, in [10], the IC50 is 0.056 nM.
